Test results taken from the supplement of paper PMC10724198.
± gives the standard deviation of the averaged measurements.

Columns and labels:
Saccharomyces cerevisiae [1] = assay: protein stability index of tFT-peptide fusion (C-terminal peptide) (PSI (0-1 scale)); higher = more stable (slower turnover); conditions: genetic background: wild type; temperature: 30 C
Saccharomyces cerevisiae [2] = assay: as above
Procedure: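 MPS profiling in S. cerevisiae of the tFT-X12 degron library: putative degron peptides plus stable controls, 12 aa, fused to the C-terminus of a sfGFP-mCherry timer. Cells are FACS-sorted into 8 mCherry/sfGFP bins and deep-sequenced. PSI runs from 0 (unstable) to 1 (stable). Backgrounds are wild type, das1Δ and doa10Δ at 30 °C, and wild type, das1Δ, cdc34-1 and cdc53-1 at 37 °C; 2-3 technical replicates each.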

[3] = genetic background: cdc34-1, temperature: 37 C
[4] = genetic background: cdc53-1, temperature: 37 C
[5] = genetic background: das1 deletion, temperature: 30 C
[6] = genetic background: das1 deletion, temperature: 37 C
[7] = genetic background: doa10 deletion, temperature: 30 C
[8] = genetic background: wild type, temperature: 30 C
[9] = genetic background: wild type, temperature: 37 C
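Note: PSI is a weighted mean of sequencing reads over stability bins, variants kept only with over 10 reads, mCherry proximal and sfGFP distal, peptide attached via GGGS linker.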

Sequence	protein stability index (Saccharomyces cerevisiae [1])	protein stability index (Saccharomyces cerevisiae [2]; [3])	protein stability index (Saccharomyces cerevisiae [2]; [4])	protein stability index (Saccharomyces cerevisiae [2]; [5])	protein stability index (Saccharomyces cerevisiae [2]; [6])	protein stability index (Saccharomyces cerevisiae [2]; [7])	protein stability index (Saccharomyces cerevisiae [2]; [8])	protein stability index (Saccharomyces cerevisiae [2]; [9])
WAIVVLVCFLRL	0.343 ± 0.017	0.283 ± 0.011	0.299 ± 0.0052	0.277 ± 0.022	0.388 ± 0.017	0.332 ± 0.024	0.277 ± 0.019	0.362 ± 0.011
WCCCVSGFVWWM	0.526 ± 0.11	0.563 ± 0.012	0.6296 ± 0.0022	0.491 ± 0.03	0.633 ± 0.021	0.458 ± 0.011	0.465 ± 0.015	0.602 ± 0.017
WCGSWGVWMRLG	0.122 ± 0.031	0.296 ± 0.08	0.456 ± 0.015	0.534 ± 0.03	0.646 ± 0.02	0.0974 ± 0.008	0.0842 ± 0.0092	0.112 ± 0.029
WEPILLELELCV	0.4357 ± 0.0036	0.498 ± 0.035	0.497 ± 0.026	0.395 ± 0.03	0.487 ± 0.023	0.327 ± 0.021	0.388 ± 0.013	0.538 ± 0.068
WFLLILFSAFAV	0.436 ± 0.0045	0.433 ± 0.021	0.463 ± 0.036	0.352 ± 0.022	0.501 ± 0.0097	0.314 ± 0.0041	0.3465 ± 0.003	0.471 ± 0.0049
WFSVIMLCYILP	0.253 ± 0.004	0.204 ± 0.023	0.22 ± 0.028	0.23 ± 0.042	0.3397 ± 0.0018	0.233 ± 0.027	0.198 ± 0.014	0.248 ± 0.036
WFVCSGVYGSVM	0.692 ± 0.013	0.676 ± 0.0086	0.749 ± 0.02	0.682 ± 0.094	0.758 ± 0.035	0.6528 ± 0.0019	0.638 ± 0.026	0.721 ± 0.0092
WFVFVFCSPRSS	0.5 ± 0.029	0.547 ± 0.048	0.618 ± 0.0098	0.4 ± 0.03	0.65 ± 0.027	0.394 ± 0.012	0.406 ± 0.017	0.568 ± 0.0097
WGFSVRFVLSVF	0.12 ± 0.017	0.0576 ± 0.004	0.145 ± 0.03	0.124 ± 0.029	0.2407 ± 0.0016	0.05 ± 0.014	0.0463 ± 0.02	0.115 ± 0.024
WGVVMVCVVFGL	0.3249 ± 0.0027	0.116 ± 0.019	0.247 ± 0.016	0.186 ± 0.028	0.312 ± 0.0044	0.159 ± 0.011	0.183 ± 0.019	0.252 ± 0.027
WHFMVFFCFCVD	0.381 ± 0.024	0.295 ± 0.04	0.399 ± 0.061	0.317 ± 0.036	0.406 ± 0.0098	0.28 ± 0.0047	0.277 ± 0.023	0.355 ± 0.028
WILPASFCVVFL	0.427 ± 0.027	0.502 ± 0.012	0.5334 ± 0.0024	0.385 ± 0.021	0.5556 ± 0.005	0.425 ± 0.019	0.397 ± 0.016	0.528 ± 0.032
WLALSFFSFFFC	0.588 ± 0.19	0.654 ± 0.014	0.7221 ± 0.00075	0.588 ± 0.025	0.6825 ± 0.0042	0.577 ± 0.047	0.57 ± 0.026	0.66 ± 0.02
WLFRASSFNWVI	0.105 ± 0.036	0.537 ± 0.017	0.7359 ± 0.0063	0.689 ± 0.04	0.802 ± 0.025	0.0843 ± 0.016	0.105 ± 0.026	0.188 ± 0.019
WLFTSVTVFTFL	0.296 ± 0.045	0.21366 ± 0.00013	0.299 ± 0.02	0.221 ± 0.023	0.421 ± 0.021	0.181 ± 0.0045	0.196 ± 0.013	0.347 ± 0.016
WLSISNLVIACR	0.217 ± 0.013	0.0277 ± 0.009	0.0619 ± 0.027	0.135 ± 0.039	0.156 ± 0.013	0.0862 ± 0.019	0.115 ± 0.025	0.127 ± 0.017
WNSQGVFILAKC	0.4783 ± 0.0023	0.54 ± 0.035	0.588 ± 0.032	0.375 ± 0.026	0.5687 ± 0.0026	0.334 ± 0.021	0.372 ± 0.021	0.561 ± 0.00046
WRAFVFYHHFLD	0.441 ± 0.015	0.665 ± 0.042	0.718 ± 0.028	0.655 ± 0.039	0.699 ± 0.014	0.329 ± 0.029	0.363 ± 0.029	0.5863 ± 0.0019

Sequence	protein stability index (Saccharomyces cerevisiae [1])	protein stability index (Saccharomyces cerevisiae [2]; [3])	protein stability index (Saccharomyces cerevisiae [2]; [4])	protein stability index (Saccharomyces cerevisiae [2]; [5])	protein stability index (Saccharomyces cerevisiae [2]; [6])	protein stability index (Saccharomyces cerevisiae [2]; [7])	protein stability index (Saccharomyces cerevisiae [2]; [8])	protein stability index (Saccharomyces cerevisiae [2]; [9])
WVFVETVFLVCG	0.25 ± 0.02	0.147 ± 0.046	0.226 ± 0.04	0.176 ± 0.038	0.3159 ± 0.0011	0.142 ± 0.012	0.162 ± 0.03	0.2848 ± 0.0003
WVGVVLLSVVGG	0.279 ± 0.032	0.161 ± 0.016	0.249 ± 0.008	0.2 ± 0.032	0.344 ± 0.0057	0.164 ± 0.008	0.183 ± 0.025	0.32339 ± 0.00026
WVWCVCVVVWCG	0.25425 ± 0.00016	0.111 ± 0.0046	0.191 ± 0.051	0.153 ± 0.026	0.256 ± 0.013	0.135 ± 0.0037	0.14 ± 0.02	0.195 ± 0.026
WVWFGCVLGYRV	0.484 ± 0.022	0.571 ± 0.022	0.561 ± 0.025	0.426 ± 0.026	0.566 ± 0.021	0.442 ± 0.039	0.413 ± 0.027	0.531 ± 0.019
WWVAGLGSSGGG	0.7348 ± 0.0046	0.738 ± 0.016	0.77959 ± 0.00011	0.663 ± 0.026	0.788 ± 0.0094	0.686 ± 0.031	0.677 ± 0.0094	0.765 ± 0.026
WWVVVRGGWCLC	0.204 ± 0.011	0.336 ± 0.043	0.416 ± 0.014	0.286 ± 0.032	0.495 ± 0.009	0.1219 ± 0.0001	0.16 ± 0.0021	0.205 ± 0.0045
YFVLVRLICFLL	0.244 ± 0.085	0.347 ± 0.0092	0.438 ± 0.0066	0.289 ± 0.035	0.472 ± 0.01	0.194 ± 0.011	0.216 ± 0.039	0.373 ± 0.013
YNTVALRITLIT	0.348 ± 0.03	0.444 ± 0.017	0.538 ± 0.013	0.329 ± 0.05	0.5018 ± 0.0042	0.209 ± 0.00078	0.228 ± 0.017	0.364 ± 0.0086
YPLISVSLPCPS	0.489 ± 0.012	0.533 ± 0.018	0.6067 ± 0.0052	0.396 ± 0.042	0.585 ± 0.015	0.349 ± 0.005	0.404 ± 0.023	0.544 ± 0.016
YPRLVGGCWFRL	0.403 ± 0.047	0.318 ± 0.03	0.258 ± 0.037	0.371 ± 0.016	0.547 ± 0.032	0.644 ± 0.043	0.319 ± 0.041	0.603 ± 0.031
YSCFFFLFSFFF	0.4853 ± 0.0041	0.498 ± 0.023	0.56 ± 0.016	0.429 ± 0.027	0.5552 ± 0.0024	0.423 ± 0.022	0.406 ± 0.0031	0.50243 ± 1.8e-05
YSVFCPLFFIIY	0.379 ± 0.014	0.3507 ± 0.0014	0.323 ± 0.006	0.298 ± 0.04	0.458 ± 0.013	0.351 ± 0.014	0.283 ± 0.02	0.433 ± 0.0062
YTPPISRLLIFT	0.497 ± 0.097	0.528 ± 0.031	0.532 ± 0.0094	0.39 ± 0.035	0.564 ± 0.016	0.353 ± 0.019	0.364 ± 0.052	0.494 ± 0.022
YVFSPWSCWASV	0.423 ± 0.015	0.366 ± 0.019	0.396 ± 0.0044	0.416 ± 0.0081	0.361 ± 0.0059	0.4213 ± 0.00065	0.4048 ± 0.0027	0.351 ± 0.015
YVLWFVCGVGFV	0.392 ± 0.041	0.352 ± 0.015	0.462 ± 0.031	0.29 ± 0.045	0.4768 ± 0.0011	0.262 ± 0.024	0.298 ± 0.02	0.453 ± 0.028
YVWPKRRGLRVA	0.433 ± 0.013	0.611 ± 0.036	0.674 ± 0.023	0.467 ± 0.03	0.679 ± 0.009	0.197 ± 0.019	0.261 ± 0.038	0.49 ± 0.025
YYLVKCVYLRTT	0.254 ± 0.032	0.413 ± 0.013	0.4509 ± 0.0038	0.371 ± 0.029	0.504 ± 0.0098	0.155 ± 0.02	0.175 ± 0.0092	0.3201 ± 0.00022
